Measurements taken from patent publication US12723255B2, “Herbicide tolerance genes and methods of use thereof” (priority 2014, dated 2026).

B1: MON-HT4: engineered oxygenase protein, amino acid sequence SEQ ID NO:25 (protein)
chain: MHAALTPLTNKYRFIDVQPLTGVLGAEITGVDLREPLDDSTWNEILDAFHTYQVIYFPGQAITNEQHIAFSRRFGPVDPVPLLKSIEGYPEVQMIRREANESGRVIGDDWHTDSTFLDAPPAAVVMYAREVPPYGGDTGFLSMYTAWETLSPTMQATIEGLNVVHSATRVFGSLYQAQNRRYSNTSVKVMDVDAGDRETVHPLVVSHPVTGRRALYCNQVYCQRIEGMTDAESKSLLQFLYEHATKFDFTCRVRWKKDQVLVWDNLCTMHRAVPDYAGKFRYLTRTTVAGDKPSR
B2: MON-HT5: engineered oxygenase protein, amino acid sequence SEQ ID NO:28 (protein)
chain: MHAALTPLTNKYRFIDVQPLTGVLGAEITGVDLREPLDDSTWNEILDAFHTYQVIYFPGQAITNEQHIAFSRRFGPVDPVPLLKSIEGYPEVQMIRREANESGRVIGDDWHTDSTFLDAPPAAVVMRAIEVPEYGGDTGFLSMYSAWETLSPTMQATIEGLNVVHSATKVFGSLYQATNWRFSNTSVKVMDVDAGDRETVHPLVVTHPVTGRRALYCNQVYCQKIQGMTDAESKSLLQFLYEHATKFDFTCRVRWKKDQVLVWDNLCTMHRAVPDYAGKFRYLTRTTVAGDKPSR
B3: MON-HT6: engineered oxygenase protein, amino acid sequence SEQ ID NO:31 (protein)
chain: MHAALSPLSQKYRFIDVQPLTGVLGAEITGVTLREPLDDNTWNEILDAFHTYQVIYFPGQAITNEQHIAFSRRFGPVDPVPLLKSIEGYPEVQMIRREANESGRVIGDDWHTDSTFLDAPPAAVVMYAREVPPYGGDTGFLSMYSAWDTLSDTMKATIEGLNVVHSATRVFGSLYQAQNRRFSNTSVKVMDVDAGDRETVHPLVVSHPVTGRRALYCNQVYCQRIEGMTDAESKPLLQFLYEHATRFDFTCRVRWKKDQVLVWDNLCTMHRAVPDYAGKFRYLTRTTVAGDKPSR

tested on: F1 hybrid maize plants; assay: efficacy field trial for quizalofop-P tolerance and clethodim sensitivity; format: in vivo; settings: scale 0 to 100; 0.32 lb ai/acre at VE-V2, V4, V8; with CTP unless label says no CTP
Description: Separate trait efficacy field trials for quizalofop-P and 2,4-D were conducted at two locations cach with F1 hybrid transgenic plants produced by crossing an inbred plant containing maize event MON89034 with an R1 plant containing MON-HT55 (with a CTP), MON-HTI (with or without a CTP), MON-HT2 (with or without a CTP), MON-HT3 (with a CTP), MON-HT4 (with a CTP), MON-HT5 (with a CTP), MON-HT6 (with a CTP), or MON-HT7 (with a CTP). Transgenic F1 hybrid plants containing maize events NK603×MON89034 were used for comparison as a control.
In the efficacy field trial for quizalofop-P tolerance and clethodim sensitivity, one of four herbicide treatments was used: (1) quizalofop-P (Assure II) at 0.32 lb ai/acre (4×) plus 0.25% v/v non-ionic surfactant (NIS) applied at VE-V2 growth stage followed by the same at V4 growth stage followed by the same at V8 growth stage; (2) quizalofop-P at 0.64 lb ai/acre (8×) plus 0.25% v/v NIS applied at VE to V2 growth stage followed by the same at V4 growth stage followed by the same at V8 growth stage; (3) quizalofop-P at 1.28 lb ai/acre (16×) plus 0.25% v/v NIS applied at VE to V2 growth stage followed by the same at V4 growth stage followed by the same at V8growth stage; or (4) clethodim at 0.25 lb ai/acre (1×) plus 0.25% v/v NIS applied at V8 growth stage. Plots were visually rated 10-14 days after application for crop injury on a scale of 0 to 100with “0” being none and “100” being complete crop destruction. Tables 14 and 15 show the average injury ratings after herbicide application at V4 or V8 growth stage, respectively.

Q: For B1, which “average injury rating, V4 Growth Stage, 4x Quizalofop” value is on record?
A: Its value is 2.8.

Q: And the “average injury rating, V8 Growth Stage, 4x Quizalofop” value?
A: The value was 3.3.

Q: For B2, which “average injury rating, V4 Growth Stage, 4x Quizalofop” value is on record?
A: The value was 1.3.

Q: And the “average injury rating, V8 Growth Stage, 4x Quizalofop” value?
A: Its value is 2.5.

Q: Which “average injury rating, V4 Growth Stage, 4x Quizalofop” value does the source give for B3 here?
A: Its value is 0.0.

Q: What about the “average injury rating, V8 Growth Stage, 4x Quizalofop” value of the same molecule?
A: Its value is 1.3.

same assay, conditions: scale 0 to 100; 0.64 lb ai/acre at VE-V2, V4, V8; with CTP unless label says no CTP

Q: With B1 as the molecule, how does the “average injury rating, V4 Growth Stage, 8x Quizalofop” value read?
A: Its value is 3.3.

Q: What about the “average injury rating, V8 Growth Stage, 8x Quizalofop” value of the same molecule?
A: Its value is 3.3.

Q: Which “average injury rating, V4 Growth Stage, 8x Quizalofop” value does the source give for B2 here?
A: The value was 4.5.

Q: And the “average injury rating, V8 Growth Stage, 8x Quizalofop” value?
A: Its value is 0.0.

Q: Which “average injury rating, V4 Growth Stage, 8x Quizalofop” value does the source give for B3 here?
A: The value was 1.3.

Q: And the “average injury rating, V8 Growth Stage, 8x Quizalofop” value?
A: The value was 2.0.

same assay, conditions: scale 0 to 100; 1.28 lb ai/acre at VE-V2, V4, V8; with CTP unless label says no CTP

Q: What does the source list for B1?
A: average injury rating, V4 Growth Stage, 16x Quizalofop: 13.8; average injury rating, V8 Growth Stage, 16x Quizalofop: 8.0

Q: Which results are given for B2?
A: average injury rating, V4 Growth Stage, 16x Quizalofop: 4.5; average injury rating, V8 Growth Stage, 16x Quizalofop: 8.0

Q: With B3 as the molecule, how does the “average injury rating, V4 Growth Stage, 16x Quizalofop” value read?
A: Its value is 2.8.

Q: And the “average injury rating, V8 Growth Stage, 16x Quizalofop” value?
A: Its value is 5.0.

same assay, conditions: scale 0 to 100; clethodim 0.25 lb ai/acre at V8; volunteer control

Q: With B1 as the molecule, how does the “average injury rating, V8 Growth Stage, 1x Clethodim” value (“average injury rating … 1x Clethodim” for short) read?
A: The value was 94.5.

Q: With B2 as the molecule, how does the “average injury rating … 1x Clethodim” value read?
A: Its value is 92.0.

Q: Which “average injury rating … 1x Clethodim” value does the source give for B3 here?
A: The value was 93.3.

tested on: F1 hybrid maize plants; assay: efficacy field trial with segregating F1 hybrid plants; format: in vivo; settings: CTP A; 2,4-D amine 2× at VE-V2 (plus quizalofop-P 0.5×), V4, V8
Description: Ten unique engineered proteins optimized for activity at higher temperatures were selected for maize transformation and analysis in plants. DNA constructs were produced for expressing these engineered proteins with codon usage optimized for monocot expression using methods known to those skilled in the art. Enhancers, promoters, leaders, introns, CTPs, and 3′UTRs were tested in various combinations with the engineered proteins in these DNA constructs. The DNA constructs were used to transform immature maize (LH244) embryos with these vectors using Agrobacterium tumifaciens and standard methods known in the art. Regenerated R0 transgenic plantlets were grown in the green house.
Transgenic R0 maize plants were screened by the application of quizalofop-P (2×) plus 2,4-D (2×) at 7 to 10 days following transplant into plugs (generally corresponding to V3-V4 growth stage). All constructs tested produced plants containing unique events that passed the RO screen. The R0 plants were selfed to generate R1 homozygous seed and the R0 was also used as the male to cross with inbred plants containing maize event MON89034 to generate segregating F1 hybrid seed for efficacy field trials.
An efficacy field trial was conducted with segregating F1 hybrid plants, with 50% hemizygous and 50% null for the transgene. Tolerance to quizalofop-P (2×) plus 2,4-D (2×) was assessed using two herbicide application regimens: (1) quizalofop-P (Assure II) at 0.16 lb ai/acre (2×) plus 0.25% v/v non-ionic surfactant (NIS) applied at VE-V2 growth stage followed by the same at V4 growth stage followed by the same at V8 growth stage and (2) 2,4-D amine at 2 lb ae/acre (2×) plus quizalofop-P at 0.04 lb ai/acre (0.5×) plus 0.25% v/v NIS applied at VE-V2 growth stage followed by 2,4-D amine at 2 lb ae/acre (2×) plus 0.25% v/v NIS applied at V4 growth stage followed by the same at V8 growth stage. The 50% of the plants that were null for transgene were removed by the first quizalofop-P application at VE-V2 growth stage. Plots were visually rated 10-14 days after application for crop injury on a scale of 0 to 100 with “0” being none and “100” being complete crop destruction. […] The percentage injury rating with 2× application of 2,4-D at V8 growth stage ranged from a high of 40% to a low of 0. Similarly, the percentage injury rating with 2× application of quizalofop-P at V8 growth stage ranged from a high of 90% to a low of 0. Variation in injury rating between plants expressing the same protein is likely due to variations in construct design or transgene insertion location.

Q: With B1 as the molecule, how does the “% Injury from V4 2,4-D” value read?
A: The value was 22.3%.

Q: And the “% Injury from V8 2,4-D” value?
A: The value was 12.3%.

Q: With B2 as the molecule, how does the “% Injury from V4 2,4-D” value read?
A: Its value is 27.2%.

Q: What about the “% Injury from V8 2,4-D” value of the same molecule?
A: The value was 17.4%.

Q: With B3 as the molecule, how does the “% Injury from V4 2,4-D” value read?
A: The value was 27%.

Q: What about the “% Injury from V8 2,4-D” value of the same molecule?
A: The value was 12.7%.

same assay, conditions: CTP A; quizalofop-P 2× at VE-V2, V4, V8

Q: Which “% Injury from V4 Quizalofop” value does the source give for B1 here?
A: Its value is 6.1%.

Q: And the “% Injury from V8 Quizalofop” value?
A: Its value is 0%.

Q: For B2, which “% Injury from V4 Quizalofop” value is on record?
A: The value was 6.8%.

Q: And the “% Injury from V8 Quizalofop” value?
A: Its value is 1.7%.

Q: Which “% Injury from V4 Quizalofop” value does the source give for B3 here?
A: Its value is 8%.

Q: What about the “% Injury from V8 Quizalofop” value of the same molecule?
A: The value was 1.7%.

tested on: not given; assay: not given; format: physicochemical; settings: buffer
Summary of the method: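 Thermal shift assay: purified enzyme in 30 mM Tris pH7.5, 150 mM NaCl, with or without 50 uM Fe2+ and 1.0 mM aKG. Unfolding followed by SYPRO orange fluorescence from 10° C. to 95° C. in 0.5° C. steps; melting temperature (T1/2) taken from the curve.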

Q: For B1, which “T1/2, temperature where 50% of the protein was unfolded, Buffer plus Fe2+ and aKG” value is on record?
A: The value was 44 °C.

Q: Which “T1/2, temperature where 50% of the protein was unfolded, Buffer plus Fe2+ and aKG” value does the source give for B2 here?
A: The value was 61 °C.

Q: Which “T1/2, temperature where 50% of the protein was unfolded, Buffer plus Fe2+ and aKG” value does the source give for B3 here?
A: The value was 44 °C.

same assay, conditions: buffer, pH 7.5

Q: Which “T1/2, temperature where 50% of the protein was unfolded, Buffer” value does the source give for B1 here?
A: Its value is 43 °C.

Q: Which “T1/2, temperature where 50% of the protein was unfolded, Buffer” value does the source give for B2 here?
A: Its value is 60 °C.

Q: For B3, which “T1/2, temperature where 50% of the protein was unfolded, Buffer” value is on record?
A: Its value is 44 °C.
